Assay results: patent publication US20240254220A1, “COMBINED THERAPY USING ANTI-CD300C ANTIBODY” (CentricsBio, Inc., priority 2021, published 2024)

Columns and labels:
THP-1 = assay: M1 macrophage marker ELISA in THP-1; assay type: cell-based, human; settings: THP-1, 10 μg/mL, 48 hours, antibody alone
Method: In order to identify whether the induction of differentiation of monocytes into M1 macrophages increases when the cells are treated with the anti-CD300c monoclonal antibody CL7 produced in Example 1 and an immunotherapeutic agent, such as Imfinzi as an anti-PD-L1 antibody, Opdivo as an anti-PD-1 antibody, KEYTRUDA as an anti-PD-1 antibody, an anti-CD47 antibody (αCD47), and an anti-CTLA-4 antibody, alone in combination, THP-1 was dispensed into a 96-well plate at 1.5×10^4 cells/well and treated with the anti-CD300c monoclonal antibody and the immunotherapeutic agent, respectively, at 10 μg/mL alone or in combination, followed by incubation for 48 hours, and the production levels of tumor necrosis factor-α (TNF-α), IL-1b, and IL-8, which are differentiation markers of M1 macrophages, were measured using an ELISA kit (Human TNF-α Quantikine kit, R&D Systems).

[1] = system: A549 (human lung cancer cell line); assay: A549 cancer cell growth inhibition (CCK-8), CL7 and Imfinzi; assay type: cell-based; settings: A549, 0% FBS, 10 μg/mL each, 5 days
Description: In order to identify cancer cell growth inhibitory effects by combined administration of the anti-CD300c monoclonal antibody CL7 and an immunotherapeutic agent, the cancer cell growth inhibitory effects were compared using A549 (human lung cancer cell line) and MDA-MB-231 (human breast cancer cell line). Specifically, the cells were dispensed into a 96-well plate at 2×10^4 cells (A549) or 3×10^4 cells (MDA-MB-231) under 0% fetal bovine serum (FBS) conditions, and at 6×10^3 cells (A549) or 1×10^4 cells (MDA-MB-231) under 0.1% fetal bovine serum conditions. Subsequently, the cells were treated with the anti-CD300c monoclonal antibody and Imfinzi at 10 μg/mL alone or in combination, followed by incubation for 5 days. For a control group, the cells were treated with the same amount of phosphate buffer solution (PBS). Then, the cells were treated with CCK-8 (DOJINDO), and the absorbance was measured at OD 450 nm. The results are shown in FIG. 33 (A549) and FIG. 34 (MDA-MB-231).

[2] = system: colon cancer cell line (CT26) tumor; assay: Tumor volume, complete remission and long-term survival, CT26 model, combined administration; assay type: in vivo, BALB/c mice; settings: CL7 25 mg/kg, anti-PD-1 10 mg/kg, anti-CTLA-4 4 mg/kg i.p. D11, D14, D18
B16F10 melanoma cells = assay: In vivo cancer growth inhibition, B16F10 melanoma model; set-up: species or system C57BL/6 mice; settings: CL7 25 mg/kg, α-PD-1 10 mg/kg, α-CTLA4 4 mg/kg i.p. twice a week, 4 times; 20 days
Method: In order to identify whether the anti-CD300c monoclonal antibody CL7 is effective in other carcinomas in addition to a CT26 colon cancer mouse model, an additional experiment was conducted with melanoma mouse models. B16F10 melanoma cells at 7×10^5 cells were transplanted by subcutaneous injection into 8-week-old male C57BL/6 mice to prepare syngeneic mouse tumor models. Animal breeding and experiments were all conducted in a SPF facility. On day 8 after transplantation of the melanoma cell line, the mice with a tumor size of 50 mm^3 to 100 mm^3 were intraperitoneally injected with 25 mg/kg of CL7, 10 mg/kg of α-PD-1, and 4 mg/kg of α-CTLA4. More specifically, the mice were injected, twice a week for 2 weeks (over a total of 4 times), with each of the anti-CD300c monoclonal antibody, the anti-PD-1 antibody, the anti-CD300c monoclonal antibody+the anti-PD-1 antibody (Combo), and the anti-CD300c monoclonal antibody+the anti-PD-1 antibody+the anti-CTLA-4 antibody (Triple), and for a control group, the mice were injected with the same amount of phosphate buffered saline (PBS). The cancer size was measured for 20 days.

CD300c antigen = molecular target: T1, CD300c antigen (Homo sapiens, UniProt Q08708); assay: Binding ELISA of CL7 (Experimental Example 2.3); settings: CL7 diluted from 10 μg/mL
T1 sequence (Q08708 21-224): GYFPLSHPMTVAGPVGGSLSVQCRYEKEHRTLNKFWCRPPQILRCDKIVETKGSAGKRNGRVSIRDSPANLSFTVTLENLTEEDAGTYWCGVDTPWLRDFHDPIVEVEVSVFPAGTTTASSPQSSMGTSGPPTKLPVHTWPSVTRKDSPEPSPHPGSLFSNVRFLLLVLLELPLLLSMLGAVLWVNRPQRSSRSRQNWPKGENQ
Method: CD300c antigen (250 ug/mL) was diluted to a concentration of 800 ng/mL in coating buffer (0.1 M sodium carbon ate, pH 9.0), placed into a 96-well microplate at 100 μL per well, and incubated at 4° C. overnight. The next day, the microplate was washed three times with 200 μL of PBST. Thereafter, 200 μL of a blocking buffer (5% skim milk) was added thereto, followed by blocking at room temperature for 1 hour. The anti-CD300c monoclonal antibody CL7 was diluted to 200 μg/mL in PBS, and the concentration thereof was checked by measurement using Nanodrop (product name: NanoDrop One/One, manufactured by Thermo Fisher Scientific). Subsequently, CL7 was diluted in quadruplicate with PBS starting from 10 μg/mL, and added at 100 μL each, followed by incubation at room temperature for 1 hour. After the incubation, the microplate was washed three times with […] of PBST. A secondary antibody (conjugated anti-Fc IgG) was diluted 1:10,000 in blocking buffer, and added at 100 μL, followed by incubation at room temperature for 1 hour, and then washed three times with 200 μL of PBST. […] Then, 50 μL of 1 N sulfuric acid was added to stop development, and measurement was performed at 450 nm using a microplate reader (product name: Varioskan LUX) to obtain binding affinity results.

B1: CL7: anti-CD300c monoclonal antibody, VH3VL1 phage library, VH SEQ ID 327, VL SEQ ID 328 (antibody, V domains shown)
VH: EVQLLESGGGLVQPGGSLRLSCAASGFTFSRYAMSWVRQAPGKGLEWVSAISGSGGSTYYADSVKGRFTISRDNSKNTLYLQMNSLRAEDTAVYYCARSSQGIFDIWGQGTLVTVSS
VL: QSVLTQPPSASGTPGQRVTISCSGNNIGTRRVHWYQQLPDTAPKLLIYSKNNRPSGVPDRFSGSKSGTSASLAISGLRSEDEADYYCAAWDDSLSGPVFGGGTKLTVL
modifications: CL7 Heavy Chain Variable Region; CL7 Light Chain Variable Region
production level of IL-8 (THP-1): significantly increased
production levels of all three differentiation markers (TNF-α, IL-1b, IL-8) (THP-1): increased
cell growth inhibitory effect compared with control group [1]: 17%
growth of cancer (tumor volume) [2]: inhibited
cancer growth (cancer size) (B16F10 melanoma cells): inhibited
binding to CD300c (CD300c antigen): bound to CD300c in a concentration-dependent manner
